Laboratory results: the Human Domainome abundance scans (Beltran et al. 2025)
± gives the uncertainty stated by the source.

B1: RAS guanyl-releasing protein 1, residues 539 to 593; numbered along this chain, O95267 (parent)
chain: GFPHNFQETTYLKPTFCDNCAGFLWGVIKQGYRCKDCGMNCHKQCKDLVVFECKK

Variants of: B1
Test: abundance fitness (aPCA) (normalised: wild type 0, dead -1); higher = more abundant; growth selection in yeast, the domain comes from the species named
Settings: Homo sapiens

Question: Which abundance fitness does the source give for GFPHNFQETTYLKPTFCDNCAGFLWGVIKQGYRCKDCGMNCHKQCKDLVVFEDKK [C53D] here?
Answer: -0.061 ± 0.14

Question: Which abundance fitness does the source give for GFPHNFQETTYLKPTFCDNCAGFLWGVIKQGYRCKDCGMNCHKQCKDLVVFEHKK [C53H] here?
Answer: -0.009 ± 0.2

Question: Which abundance fitness does the source give for GFPHNFQETTYLKPTFCDNCAGFLWGVIKQGYRCKDCGMNCHKQCKDLVVFERKK [C53R] here?
Answer: -0.255 ± 0.067

Question: With GFPHNFQETTYLKPTFCDNCAGFLWGVIKQGYRCKDCGMNCHKQCKDLVVFETKK [C53T] as the variant, how does the abundance fitness read?
Answer: -0.245 ± 0.1

Question: Which abundance fitness does the source give for GFPHNFQETTYLKPTFCDNCAGFLWGVIKQGYRCKDCGMNCHKQCKDLVVFEVKK [C53V] here?
Answer: -0.103 ± 0.062

Question: With GFPHNFQETTYLKPTFCDNCAGFLWGVIKQGYRCKDCGMNCHKQCKDLVVFEWKK [C53W] as the variant, how does the abundance fitness read?
Answer: -0.082 ± 0.074

Question: Which abundance fitness does the source give for GFPHNFQETTYLKPTFCDNCAGFLWGVIKQGYRCKDCGMNCHKQCKDLVVFEKKK [C53K] here?
Answer: -0.257 ± 0.19

Question: For GFPHNFQETTYLKPTFCDNCAGFLWGVIKQGYRCKDCGMNCHKQCKDLVVFEYKK [C53Y], which abundance fitness is on record?
Answer: -0.198 ± 0.16

Question: With GFPHNFQETTYLKPTFCDNCAGFLWGVIKQGYRCKDCGMNCHKQCKDLVVFEMKK [C53M] as the variant, how does the abundance fitness read?
Answer: -0.095 ± 0.051

Question: With GFPHNFQETTYLKPTFCDNCAGFLWGVIKQGYRCKDCGMNCHKQCKDLVVFELKK [C53L] as the variant, how does the abundance fitness read?
Answer: 0.021 ± 0.085

Question: Which abundance fitness does the source give for GFPHNFQETTYLKPTFCDNCAGFLWGVIKQGYRCKDCGMNCHKQCKDLVVFEIKK [C53I] here?
Answer: -0.297 ± 0.2

Question: For GFPHNFQETTYLKPTFCDNCAGFLWGVIKQGYRCKDCGMNCHKQCKDLVVFKCKK [E52K], which abundance fitness is on record?
Answer: -0.057 ± 0.092

Question: With GFPHNFQETTYLKPTFCDNCAGFLWGVIKQGYRCKDCGMNCHKQCKDLVVFVCKK [E52V] as the variant, how does the abundance fitness read?
Answer: -0.148 ± 0.055

Question: With GFPHNFQETTYLKPTFCDNCAGFLWGVIKQGYRCKDCGMNCHKQCKDLVVFLCKK [E52L] as the variant, how does the abundance fitness read?
Answer: -0.168 ± 0.087

Question: Which abundance fitness does the source give for GFPHNFQETTYLKPTFCDNCAGFLWGVIKQGYRCKDCGMNCHKQCKDLVVFSCKK [E52S] here?
Answer: -0.203 ± 0.09

Question: With GFPHNFQETTYLKPTFCDNCAGFLWGVIKQGYRCKDCGMNCHKQCKDLVVFHCKK [E52H] as the variant, how does the abundance fitness read?
Answer: -0.053 ± 0.13

Question: Which abundance fitness does the source give for GFPHNFQETTYLKPTFCDNCAGFLWGVIKQGYRCKDCGMNCHKQCKDLVVFWCKK [E52W] here?
Answer: -0.267 ± 0.11

Question: Which abundance fitness does the source give for GFPHNFQETTYLKPTFCDNCAGFLWGVIKQGYRCKDCGMNCHKQCKDLVVFQCKK [E52Q] here?
Answer: -0.166 ± 0.15

Question: With GFPHNFQETTYLKPTFCDNCAGFLWGVIKQGYRCKDCGMNCHKQCKDLVVFCCKK [E52C] as the variant, how does the abundance fitness read?
Answer: -0.115 ± 0.081

Question: For GFPHNFQETTYLKPTFCDNCAGFLWGVIKQGYRCKDCGMNCHKQCKDLVVFTCKK [E52T], which abundance fitness is on record?
Answer: -0.037 ± 0.086

Question: For GFPHNFQETTYLKPTFCDNCAGFLWGVIKQGYRCKDCGMNCHKQCKDLVVFICKK [E52I], which abundance fitness is on record?
Answer: -0.063 ± 0.11

Question: For GFPHNFQETTYLKPTFCDNCAGFLWGVIKQGYRCKDCGMNCHKQCKDLVVFFCKK [E52F], which abundance fitness is on record?
Answer: 0.184 ± 0.12

Question: With GFPHNFQETTYLKPTFCDNCAGFLWGVIKQGYRCKDCGMNCHKQCKDLVVFACKK [E52A] as the variant, how does the abundance fitness read?
Answer: -0.068 ± 0.11

Question: For GFPHNFQETTYLKPTFCDNCAGFLWGVIKQGYRCKDCGMNCHKQCKDLVVFPCKK [E52P], which abundance fitness is on record?
Answer: -0.066 ± 0.071

Question: Which abundance fitness does the source give for GFPHNFQETTYLKPTFCDNCAGFLWGVIKQGYRCKDCGMNCHKQCKDLVVFNCKK [E52N] here?
Answer: -0.174 ± 0.18

Question: With GFPHNFQETTYLKPTFCDNCAGFLWGVIKQGYRCKDCGMNCHKQCKDLVVFMCKK [E52M] as the variant, how does the abundance fitness read?
Answer: -0.121 ± 0.053

Question: With GFPHNFQETTYLKPTFCDNCAGFLWGVIKQGYRCKDCGMNCHKQCKDLVVFGCKK [E52G] as the variant, how does the abundance fitness read?
Answer: -0.031 ± 0.045

Question: With GFPHNFQETTYLKPTFCDNCAGFLWGVIKQGYRCKDCGMNCHKQCKDLVVFDCKK [E52D] as the variant, how does the abundance fitness read?
Answer: 0.104 ± 0.092

Question: For GFPHNFQETTYLKPTFCDNCAGFLWGVIKQGYRCKDCGMNCHKQCKDLVVGECKK [F51G], which abundance fitness is on record?
Answer: 0.033 ± 0.06

Question: With GFPHNFQETTYLKPTFCDNCAGFLWGVIKQGYRCKDCGMNCHKQCKDLVVCECKK [F51C] as the variant, how does the abundance fitness read?
Answer: -0.061 ± 0.12

Question: With GFPHNFQETTYLKPTFCDNCAGFLWGVIKQGYRCKDCGMNCHKQCKDLVVDECKK [F51D] as the variant, how does the abundance fitness read?
Answer: -0.043 ± 0.15

Question: For GFPHNFQETTYLKPTFCDNCAGFLWGVIKQGYRCKDCGMNCHKQCKDLVVPECKK [F51P], which abundance fitness is on record?
Answer: -0.07 ± 0.064

Question: Which abundance fitness does the source give for GFPHNFQETTYLKPTFCDNCAGFLWGVIKQGYRCKDCGMNCHKQCKDLVVVECKK [F51V] here?
Answer: -0.046 ± 0.077

Question: For GFPHNFQETTYLKPTFCDNCAGFLWGVIKQGYRCKDCGMNCHKQCKDLVVMECKK [F51M], which abundance fitness is on record?
Answer: -0.029 ± 0.054

Question: Which abundance fitness does the source give for GFPHNFQETTYLKPTFCDNCAGFLWGVIKQGYRCKDCGMNCHKQCKDLVVTECKK [F51T] here?
Answer: -0.435 ± 0.14

Question: For GFPHNFQETTYLKPTFCDNCAGFLWGVIKQGYRCKDCGMNCHKQCKDLVVNECKK [F51N], which abundance fitness is on record?
Answer: 0.256 ± 0.11

Question: With GFPHNFQETTYLKPTFCDNCAGFLWGVIKQGYRCKDCGMNCHKQCKDLVVHECKK [F51H] as the variant, how does the abundance fitness read?
Answer: -0.426 ± 0.31

Question: With GFPHNFQETTYLKPTFCDNCAGFLWGVIKQGYRCKDCGMNCHKQCKDLVVSECKK [F51S] as the variant, how does the abundance fitness read?
Answer: 0.011 ± 0.082

Question: For GFPHNFQETTYLKPTFCDNCAGFLWGVIKQGYRCKDCGMNCHKQCKDLVVKECKK [F51K], which abundance fitness is on record?
Answer: -0.155 ± 0.085

Question: For GFPHNFQETTYLKPTFCDNCAGFLWGVIKQGYRCKDCGMNCHKQCKDLVVQECKK [F51Q], which abundance fitness is on record?
Answer: 0.002 ± 0.091

Question: For GFPHNFQETTYLKPTFCDNCAGFLWGVIKQGYRCKDCGMNCHKQCKDLVVAECKK [F51A], which abundance fitness is on record?
Answer: -0.074 ± 0.083

Question: With GFPHNFQETTYLKPTFCDNCAGFLWGVIKQGYRCKDCGMNCHKQCKDLVVWECKK [F51W] as the variant, how does the abundance fitness read?
Answer: -0.09 ± 0.094

Question: With GFPHNFQETTYLKPTFCDNCAGFLWGVIKQGYRCKDCGMNCHKQCKDLVVLECKK [F51L] as the variant, how does the abundance fitness read?
Answer: -0.053 ± 0.067

Question: For GFPHNFQETTYLKPTFCDNCAGFLWGVIKQGYRCKDCGMNCHKQCKDLVVRECKK [F51R], which abundance fitness is on record?
Answer: -0.008 ± 0.047

Question: With GFPHNFQETTYLKPTFCDNCAGFLWGVIKQGYRCKDCGMNCHKQCKDLVVEECKK [F51E] as the variant, how does the abundance fitness read?
Answer: -0.044 ± 0.098

Question: For GFPHNFQETTYLKPTFCDNCAGFLWGVIKQGYRCKDCGMNCHKQCKDLVVYECKK [F51Y], which abundance fitness is on record?
Answer: 0.05 ± 0.086
